Assay results taken from the supplement of paper PMC10065799, “High-throughput profiling of sequence recognition by tyrosine kinases and SH2 domains using bacterial peptide display” (eLife, 2023).

Experiments:
[1] = tested on: AncSZ; assay: phosphorylation enrichment, bacterial display (enrichment ratio); higher = better substrate or ligand; peptides without Tyr show the background
[2] = target: FGFR1 (UniProt P11362); assay: as above
[3] = tested on: c-Abl (mouse); assay: as above
[4] = target: FGFR3 (UniProt P22607); assay: as above
[5] = tested on: Fer (mouse); assay: as above
[6] = target: Fyn (UniProt P06241); assay: as above
[7] = target: Jak2 (UniProt O60674); assay: as above
[8] = target: Hck (UniProt P08631); assay: as above
[9] = target: EPHB2 (UniProt P29323); assay: as above
[10] = target: MERTK (UniProt Q12866); assay: as above
[11] = target: EPHB1 (UniProt P54762); assay: as above
[12] = target: Fes (UniProt P07332); assay: as above
[13] = tested on: c-Src; assay: as above
[14] = target: SHP2-C SH2; assay: SH2 binding enrichment of the phosphorylated peptide, bacterial display (enrichment ratio); higher = better substrate or ligand; peptides without Tyr show the background
[15] = target: c-Src SH2; assay: as above
[16] = target: Grb2 SH2 (UniProt P62993); assay: as above
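Throughout, for SH2 binding enrichment of the phosphorylated peptide, bacterial display: peptide library displayed on the E. coli surface as eCPX fusions, selected cells deep-sequenced, score is each peptide's frequency after selection divided by its frequency in the input.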
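Throughout, for phosphorylation enrichment, bacterial display: 11-residue human phosphosite peptides and single-mutation variants displayed on the E. coli surface, counted by deep sequencing, each peptide's frequency after selection divided by its frequency in the unselected input library; frequency after pTyr selection over input frequency; kinase dosed for 20-30% of maximal phosphorylation in three min.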

Sequence of FGFR3 (P22607 whole entry, looked up): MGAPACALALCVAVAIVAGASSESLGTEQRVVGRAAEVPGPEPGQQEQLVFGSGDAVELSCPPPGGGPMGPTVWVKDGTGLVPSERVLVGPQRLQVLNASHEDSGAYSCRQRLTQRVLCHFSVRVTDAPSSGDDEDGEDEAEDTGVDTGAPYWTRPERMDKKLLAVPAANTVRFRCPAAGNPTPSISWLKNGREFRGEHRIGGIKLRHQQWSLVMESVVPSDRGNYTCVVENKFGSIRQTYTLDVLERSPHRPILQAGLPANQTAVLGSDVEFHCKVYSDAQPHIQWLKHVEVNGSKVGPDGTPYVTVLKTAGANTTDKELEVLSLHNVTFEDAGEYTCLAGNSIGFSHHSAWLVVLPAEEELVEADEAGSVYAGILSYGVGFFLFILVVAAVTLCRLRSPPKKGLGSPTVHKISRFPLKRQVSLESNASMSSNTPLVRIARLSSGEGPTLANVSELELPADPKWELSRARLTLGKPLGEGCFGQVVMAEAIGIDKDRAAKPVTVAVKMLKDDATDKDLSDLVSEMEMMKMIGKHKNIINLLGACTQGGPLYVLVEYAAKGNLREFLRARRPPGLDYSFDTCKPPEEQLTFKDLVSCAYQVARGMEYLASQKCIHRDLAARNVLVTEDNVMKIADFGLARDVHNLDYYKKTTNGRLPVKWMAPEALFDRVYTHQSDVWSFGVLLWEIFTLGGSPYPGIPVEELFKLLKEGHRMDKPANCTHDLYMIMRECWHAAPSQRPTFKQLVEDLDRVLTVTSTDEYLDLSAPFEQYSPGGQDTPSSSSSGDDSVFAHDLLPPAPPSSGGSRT
Sequence of MERTK (Q12866 whole entry, looked up): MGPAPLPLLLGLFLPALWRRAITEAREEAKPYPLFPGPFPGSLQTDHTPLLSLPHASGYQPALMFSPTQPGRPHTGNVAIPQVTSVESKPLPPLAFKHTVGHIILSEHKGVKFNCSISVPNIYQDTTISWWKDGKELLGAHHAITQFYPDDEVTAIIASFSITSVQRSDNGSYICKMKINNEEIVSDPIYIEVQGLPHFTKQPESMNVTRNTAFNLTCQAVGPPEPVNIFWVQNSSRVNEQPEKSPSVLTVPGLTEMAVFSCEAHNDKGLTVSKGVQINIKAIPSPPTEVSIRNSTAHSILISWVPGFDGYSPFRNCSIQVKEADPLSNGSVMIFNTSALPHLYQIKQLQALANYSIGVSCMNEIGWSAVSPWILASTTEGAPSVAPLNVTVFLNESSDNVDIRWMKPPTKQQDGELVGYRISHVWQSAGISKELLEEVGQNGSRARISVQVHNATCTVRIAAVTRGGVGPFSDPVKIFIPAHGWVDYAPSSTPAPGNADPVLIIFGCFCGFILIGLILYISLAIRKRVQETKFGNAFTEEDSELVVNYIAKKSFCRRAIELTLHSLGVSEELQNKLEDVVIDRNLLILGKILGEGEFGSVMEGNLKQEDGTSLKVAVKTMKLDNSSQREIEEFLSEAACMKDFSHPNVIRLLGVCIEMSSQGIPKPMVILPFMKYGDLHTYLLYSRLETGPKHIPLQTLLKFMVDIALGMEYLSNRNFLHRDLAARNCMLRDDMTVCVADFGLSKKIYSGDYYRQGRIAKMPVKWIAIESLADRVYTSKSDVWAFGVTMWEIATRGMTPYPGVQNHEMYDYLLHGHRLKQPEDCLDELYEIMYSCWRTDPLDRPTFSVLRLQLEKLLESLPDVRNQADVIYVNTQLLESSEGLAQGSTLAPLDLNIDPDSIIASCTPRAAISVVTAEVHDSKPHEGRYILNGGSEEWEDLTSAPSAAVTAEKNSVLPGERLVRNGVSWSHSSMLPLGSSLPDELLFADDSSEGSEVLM
Sequence of FGFR1 (P11362 whole entry, looked up): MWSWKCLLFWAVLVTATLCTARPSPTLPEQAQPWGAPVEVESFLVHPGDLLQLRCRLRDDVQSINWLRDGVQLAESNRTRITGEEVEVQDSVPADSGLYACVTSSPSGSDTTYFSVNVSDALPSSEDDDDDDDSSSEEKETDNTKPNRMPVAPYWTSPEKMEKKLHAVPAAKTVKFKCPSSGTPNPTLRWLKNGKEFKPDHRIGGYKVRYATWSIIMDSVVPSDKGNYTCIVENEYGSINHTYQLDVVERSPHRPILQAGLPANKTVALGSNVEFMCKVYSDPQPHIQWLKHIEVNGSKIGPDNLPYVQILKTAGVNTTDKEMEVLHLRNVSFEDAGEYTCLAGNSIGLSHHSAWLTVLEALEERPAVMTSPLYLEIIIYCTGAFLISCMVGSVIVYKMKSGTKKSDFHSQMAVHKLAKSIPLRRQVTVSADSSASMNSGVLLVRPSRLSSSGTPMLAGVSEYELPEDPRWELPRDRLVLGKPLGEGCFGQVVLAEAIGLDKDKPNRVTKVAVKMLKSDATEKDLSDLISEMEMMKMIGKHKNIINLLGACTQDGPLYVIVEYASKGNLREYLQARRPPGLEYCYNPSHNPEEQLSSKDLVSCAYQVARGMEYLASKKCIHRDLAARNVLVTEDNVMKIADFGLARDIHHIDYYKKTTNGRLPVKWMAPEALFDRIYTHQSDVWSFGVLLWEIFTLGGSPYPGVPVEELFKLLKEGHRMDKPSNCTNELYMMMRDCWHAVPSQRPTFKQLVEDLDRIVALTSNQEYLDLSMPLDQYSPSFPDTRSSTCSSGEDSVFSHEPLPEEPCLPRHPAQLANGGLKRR
Sequence of Hck (P08631 whole entry, looked up): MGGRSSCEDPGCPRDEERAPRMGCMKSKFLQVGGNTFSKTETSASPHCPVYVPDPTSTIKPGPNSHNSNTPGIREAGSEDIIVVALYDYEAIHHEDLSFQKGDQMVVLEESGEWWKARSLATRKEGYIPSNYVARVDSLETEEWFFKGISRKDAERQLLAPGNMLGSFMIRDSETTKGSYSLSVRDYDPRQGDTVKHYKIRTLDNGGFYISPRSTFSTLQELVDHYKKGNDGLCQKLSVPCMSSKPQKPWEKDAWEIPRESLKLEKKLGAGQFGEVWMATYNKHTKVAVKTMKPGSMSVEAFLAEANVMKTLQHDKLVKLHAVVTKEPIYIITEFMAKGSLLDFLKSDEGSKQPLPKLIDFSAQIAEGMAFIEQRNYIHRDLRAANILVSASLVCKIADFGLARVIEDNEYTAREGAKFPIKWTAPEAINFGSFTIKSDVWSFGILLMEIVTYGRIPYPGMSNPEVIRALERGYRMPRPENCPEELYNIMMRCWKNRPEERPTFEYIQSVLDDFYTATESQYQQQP
Sequence of Jak2 (O60674 whole entry, looked up): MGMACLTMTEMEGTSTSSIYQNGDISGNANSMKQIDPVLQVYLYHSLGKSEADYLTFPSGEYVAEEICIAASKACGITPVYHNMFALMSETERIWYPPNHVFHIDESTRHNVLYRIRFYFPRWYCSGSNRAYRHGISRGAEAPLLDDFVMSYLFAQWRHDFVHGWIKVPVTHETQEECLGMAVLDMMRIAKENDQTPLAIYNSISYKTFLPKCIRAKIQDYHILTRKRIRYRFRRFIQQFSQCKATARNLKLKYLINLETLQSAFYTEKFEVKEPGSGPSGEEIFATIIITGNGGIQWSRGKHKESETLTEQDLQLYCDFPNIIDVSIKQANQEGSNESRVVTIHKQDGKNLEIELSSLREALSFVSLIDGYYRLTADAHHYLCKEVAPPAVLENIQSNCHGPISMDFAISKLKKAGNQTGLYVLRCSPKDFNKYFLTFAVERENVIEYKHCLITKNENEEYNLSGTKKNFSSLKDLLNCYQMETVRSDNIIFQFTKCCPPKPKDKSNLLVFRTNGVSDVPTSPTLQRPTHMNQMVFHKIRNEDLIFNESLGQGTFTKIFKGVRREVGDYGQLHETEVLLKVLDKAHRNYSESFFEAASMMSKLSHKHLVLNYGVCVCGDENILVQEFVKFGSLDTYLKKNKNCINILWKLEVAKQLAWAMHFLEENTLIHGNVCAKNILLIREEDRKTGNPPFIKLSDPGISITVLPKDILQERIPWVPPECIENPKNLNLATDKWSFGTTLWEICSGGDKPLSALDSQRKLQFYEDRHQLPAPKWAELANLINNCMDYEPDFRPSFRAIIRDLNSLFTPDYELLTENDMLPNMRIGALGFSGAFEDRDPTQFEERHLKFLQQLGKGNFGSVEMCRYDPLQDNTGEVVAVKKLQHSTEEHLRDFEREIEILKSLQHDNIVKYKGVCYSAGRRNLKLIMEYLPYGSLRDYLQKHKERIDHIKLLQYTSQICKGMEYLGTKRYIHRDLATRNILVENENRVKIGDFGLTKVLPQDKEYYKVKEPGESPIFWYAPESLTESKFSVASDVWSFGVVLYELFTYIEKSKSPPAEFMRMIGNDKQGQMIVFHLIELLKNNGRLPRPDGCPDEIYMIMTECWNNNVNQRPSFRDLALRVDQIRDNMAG
Sequence of Fyn (P06241 whole entry, looked up): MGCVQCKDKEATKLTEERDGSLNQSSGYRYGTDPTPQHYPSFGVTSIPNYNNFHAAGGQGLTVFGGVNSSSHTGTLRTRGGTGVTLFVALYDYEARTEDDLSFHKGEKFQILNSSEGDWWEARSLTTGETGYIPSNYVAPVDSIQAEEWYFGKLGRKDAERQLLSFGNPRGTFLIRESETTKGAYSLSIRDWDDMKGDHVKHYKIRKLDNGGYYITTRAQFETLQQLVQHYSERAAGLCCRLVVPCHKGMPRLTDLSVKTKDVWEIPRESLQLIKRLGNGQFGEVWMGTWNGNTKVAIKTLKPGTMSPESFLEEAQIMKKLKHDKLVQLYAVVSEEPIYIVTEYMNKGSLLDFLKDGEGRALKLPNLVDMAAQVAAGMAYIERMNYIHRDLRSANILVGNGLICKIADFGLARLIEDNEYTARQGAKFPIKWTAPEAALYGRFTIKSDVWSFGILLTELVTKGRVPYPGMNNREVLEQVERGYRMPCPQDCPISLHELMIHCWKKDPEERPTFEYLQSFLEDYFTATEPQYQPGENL

| Sequence | SH2 binding enrichment [14] | SH2 binding enrichment [15] | SH2 binding enrichment [16] | phosphorylation enrichment [1] | phosphorylation enrichment [2] | phosphorylation enrichment [3] | phosphorylation enrichment [4] | phosphorylation enrichment [5] | phosphorylation enrichment [6] | phosphorylation enrichment [7] | phosphorylation enrichment [8] | phosphorylation enrichment [9] | phosphorylation enrichment [10] | phosphorylation enrichment [11] | phosphorylation enrichment [12] | phosphorylation enrichment [13] |
| --- | --- | --- | --- | --- | --- | --- | --- | --- | --- | --- | --- | --- | --- | --- | --- | --- |
| ALAHKHHGGGG [HBB_Y146_Y146H] | 0.673 | 0.586 | 0.771 | 0.588 | 0.355 | 0.569 | 0.539 | 0.419 | 0.414 | 0.558 | 0.419 | 0.391 | 0.416 | 0.372 | 0.593 | 0.505 |
| ALCHFYKLNII [ETV6_Y402_R399C_YF] | 1.06 | 0.915 | 1.12 | 1.19 | 0.479 | 0.833 | 0.806 | 0.692 | 0.537 | 1.26 | 0.544 | 0.732 | 0.499 | 0.607 | 1.42 | 0.581 |
| ALHHPYGCDVE [ABL2_Y80_R78H] | 0.771 | 0.773 | 1.03 | 0.803 | 0.441 | 0.681 | 0.726 | 0.447 | 0.44 | 0.708 | 0.541 | 0.621 | 0.44 | 0.606 | 0.998 | 0.669 |
| ALTDNYMFVVI [HAGH_Y61_L64V_YF] | 0.568 | 0.388 | 0.679 | 1.68 | 8.71 | 0.99 | 6.54 | 5.63 | 0.653 | 1.3 | 0.574 | 8.6 | 1.52 | 11.5 | 1.61 | 0.516 |

Now from value to sequence, other results behind:

| SH2 binding enrichment [14] | SH2 binding enrichment [15] | SH2 binding enrichment [16] | Sequence | phosphorylation enrichment [1] | phosphorylation enrichment [2] | phosphorylation enrichment [3] | phosphorylation enrichment [4] | phosphorylation enrichment [5] | phosphorylation enrichment [6] | phosphorylation enrichment [7] | phosphorylation enrichment [8] | phosphorylation enrichment [9] | phosphorylation enrichment [10] | phosphorylation enrichment [11] | phosphorylation enrichment [12] | phosphorylation enrichment [13] |
| --- | --- | --- | --- | --- | --- | --- | --- | --- | --- | --- | --- | --- | --- | --- | --- | --- |
| 0.551 | 0.268 | 0.769 | ALECLYRREKR [TEKT5_Y195_H196R] | 0.775 | 0.584 | 0.522 | 0.482 | 0.435 | 0.539 | 0.788 | 0.515 | 0.534 | 0.621 | 0.466 | 1.85 | 0.66 |
| 0.662 | 1.49 | 0.867 | ALEQKYWALGQ [MAP1A_Y1555] | 0.768 | 0.674 | 0.537 | 0.665 | 0.436 | 1.39 | 0.886 | 0.875 | 0.492 | 1.3 | 0.53 | 0.735 | 1.82 |
| 0.889 | 0.669 | 0.793 | ALPVFYAATIA [SLC20A2_Y187] | 0.823 | 0.394 | 0.831 | 0.651 | 1.2 | 0.544 | 0.886 | 0.956 | 0.756 | 2.96 | 0.905 | 1.03 | 0.598 |
| 0.879 | 9.23 | 0.823 | ALSDGYWVVSN [TPP1_Y459] | 1.19 | 1.32 | 0.71 | 1.1 | 0.398 | 0.44 | 1.79 | 0.635 | 0.518 | 0.372 | 0.475 | 1.01 | 0.516 |
